Substitutions are numbered along the chain they refer to. Names may count otherwise.
What was measured:
Type in all cases: biochemical
[1] = Reductive amination, spectrophotometric assay at 340 nm; conditions: for Reductive amination specific activity: maximum specific activity, nonlinear fit; for Amination Activity 40 mM MIBK, kcat: 500 mM NH4Cl/NH4OH pH 9.6, 200 μM NADH, 25° C.
Method: (§1) Activity of purified proteins was measured using a spectrophotometric assay at 340 nm, corresponding to the cofactor nicotinamide adenine dinucleotide (NADH, ε340=6220 M^−1 cm^−1) (Dawson, et al., Clarendon Press, (1989). For reductive amination, reactions took place in 500 mM NH4Cl/NH4OH at pH 9.6, with 200 μM NADH and 20 mM of the ketone substrate, unless otherwise specified. For oxidative deamination, reactions took place in 0.1 M NaHCO3/Na2CO3 buffer at pH 10.0, with 1 mM NAD+ with 10 mM of the amine substrate of interest. All reactions were performed at 25° C. unless otherwise specified. Enzyme was added in 10 μL aliquots in dilute concentrations. Enzyme concentrations varied upon activity levels with the substrate present, but were dilute enough to ensure linear conversion kinetics over the analytical time period (10 min to 30 min). Specific activities were then calculated from the stoichiometric conversion of cofactor as determine by the change in absorbance at 340 nm over time.

[2] = Oxidative deamination, spectrophotometric assay at 340 nm; conditions: for Oxidative deamination specific activity: maximum specific activity, 1,3-DMBA; for Deamination Activity 40 mM 1,3-DMBA, kcat: 0.1M Glycine pH 10.0, 1 mM NAD+, 25° C.
Method: as §1, with “For oxidative deamination, reactions took place in 0.1 M NaHCO3/Na2CO3 buffer at pH 10.0, with 1 mM NAD+ with 10 mM of the amine substrate of interest.” left out

[3] = Reductive amination of PFPA, spectrophotometric assay at 340 nm; conditions: 500 mM NH4Cl/NH4OH pH 9.6, 200 μM NADH; for kcat, amination of PFPA: apparent; for Km: read-out: KM, amination of PFPA
Method: as §1
The activity of the purified protein was evaluated using a spectrophotometric assay at 340 nm as described in Section 3.2.3 at 25° C. in various concentrations of NH4Cl/NH4OH buffer pH 9.6.
Active variants were identified by the rate of change in absorbance at 340 nm, corresponding to the fastest activity. […] Some variants consumed the cofactor too quickly (<5 min) to be observed over multiple time points, and gave low absorbance in the initial time point. These variants were included for further characterization. The successful variants were sequenced (MWG Operon), and each unique sequence was expressed in pET28a/BL21 for histag purification and determination of kcat and KM values with PFPA.

[4] = Oxidative deamination, spectrophotometric assay at 340 nm; conditions: 20 mM substrate
Method: as §1, with “For oxidative deamination, reactions took place in 0.1 M NaHCO3/Na2CO3 buffer at pH 10.0, with 1 mM NAD+ with 10 mM of the amine substrate of interest.” left out
The enantioselectivity was initially estimated by measuring the deamination activity toward individual enantiomers of methylbenzylamine (MBA). […] A preference towards (R)-MBA over the corresponding (S)-enantiomer was evident in the discrepancies between the deamination activities of 0.586 U mg^−1 and 0.002 U mg^−1, respectively. These preliminary results were corroborated through direct measurement of the enantioselectivity of the MIBK amination in producing chiral 1,3-DMBA.

[5] = MIBK substrate, read-out: KM (reductive amination)
[6] = purified LeuDH library 10/11 hits
[7] = purified LeuDH library 10/11 hits, read-out: Amination of MIBK KM
[8] = 1,3-DMBA substrate, read-out: KM (oxidative deamination)
[9] = purified LeuDH library 10/11 hits, read-out: Deamination of 1,3-DMBA KM

B1: K67M: LeuDH single variant, library 1 (protein, listed as Bacillus stearothermophilus)
chain: ELFQYMEKYDYEQVLFCQDKESGLKAIIVIHDTTLGPALGGTRMWMYNSEEEALEDALRLARGMTYMNAAAGLNLGGGKTVIIGDPRKDKNEAMFRAFGRFIQGLNGRYITAEDVGTTVADMDIIYQETDYVTGISPEFGSSGNPSPATAYGVYRGMKAAAKEAFGSDSLEGKVVAVQGVGNVAYHLCRHLHEEGAKLIVTDINKEAVARAVEEFGAKAVDPNDIYGVECDIFAPCALGGIINDQTIPQLKAKVIAGSADNQLKEPRHGDMIHEMGIVYAPDYVINAGGVINVADELYGYNRERAMKKIEQIYDNIEKVFAIAKRDNIPTYVAADRMAEERIETMRKARSQFLQNGHHILSRRRAR
activity for reductive amination ([1]; MIBK): 0.2 mU mg^−1 | Reductive amination specific activity ([1]; MIBK): 0.0002 U mg^−1 protein | activity in the oxidative deamination of racemic 1,3-DMBA [2]: 3.4 mU mg^−1 | Oxidative deamination specific activity [2]: 0.0034 U mg^−1 protein

B2: K77W N276E: PheDH-AmDH double variant, SEQ ID NO:3; PheDH library 1 hit 7F10 (protein)
chain: SLVEKTSIIKDFTLFEKMSEHEQVVFCNDPATGLRAIIAIHDTTLGPALGGCRMQPYNSVEEALEDALRLSKGMTYWCAASDVDFGGGKAVIIGDPQKDKSPELFRAFGQFVDSLGGRFYTGTDMGTNMEDFIHAMKETNCIVGVPEAYGGGGDSSIPTAMGVLYGIKATNKMLFGKDDLGGVTYAIQGLGKVGYKVAEGLLEEGAHLFVTDINEQTLEAIQEKAKTTSGSVTVVASDEIYSQEADVFVPCAFGGVVNDETMKQFKVKAIAGSANEQLLTEDHGRHLADKGILYAPDYIVNSGGLIQVADELYEVNKERVLAKTKHIYDAILEVYQQAELDQITTMEAANRMCEQRMAARGRRNSFFTSSVKPKWDIRN
kcat, amination of PFPA [3]: 2.63 s⁻¹ | kcat, amination of PFPA ([3]; listed as 7F10): 2.631 ± 0.159 s⁻¹ | Km ([3]; listed as 7F10): 5.3 ± 0.6 mM | Km [3]: 5.32 mM

B3: K67M/E113V/N261V/V290C: LeuDH-AmDH variant, SEQ ID NO:8, library 10 (protein)
chain: B1 chain with E113V, N261V, V290C
Specific activity, acetophenone ([1]; 20 mM substrate): 3.5 mU mg^−1 protein | Specific activity, cyclohexanone ([1]; 20 mM substrate): 18.8 mU mg^−1 protein | Specific activity, ethyl pyruvate ([1]; 20 mM substrate): 19.8 mU mg^−1 protein | Specific activity, ethyl-3-oxohexanoate ([1]; 20 mM substrate): 6.4 mU mg^−1 protein | Specific activity, methyl acetoacetate ([1]; 20 mM substrate): 4.5 mU mg^−1 protein | Km [1, 5]: 10.3 mM | Reductive amination specific activity ([1]; MIBK): 0.089 U mg^−1 protein | Amination of MIBK Vmax [1, 6]: 0.084 ± 0.01 | Km [1, 7]: 21 ± 8.5 mM | Specific activity, (R/S)-MBA ([2]; 40 mM racemic, 20 mM of each enantiomer): 484.0 mU mg^−1 protein | Km [2, 8]: 30.9 mM | Oxidative deamination specific activity [2]: 2.81 U mg^−1 protein | Deamination of 1,3-DMBA Vmax [2, 6]: 2.894 ± 0.44 | Km [2, 9]: 33.1 ± 13 mM | Specific activity, (R)-MBA [4]: 476.5 mU mg^−1 protein | Specific activity, (S)-MBA [4]: 5.0 mU mg^−1 protein

B4: K67M/E113V/N261C/V290C: LeuDH-AmDH variant, SEQ ID NO:9, library 10 (protein)
chain: B1 chain with E113V, N261C, V290C
Km [1, 5]: 21.6 mM | Reductive amination specific activity ([1]; MIBK): 0.236 U mg^−1 protein | Amination of MIBK Vmax [1, 6]: 0.236 ± 0.04 | Km [1, 7]: 21.6 ± 11.5 mM | Km [2, 8]: 14.8 mM | Oxidative deamination specific activity [2]: 1.76 U mg^−1 protein | Deamination of 1,3-DMBA Vmax [2, 6]: 1.76 ± 0.20 | Km [2, 9]: 14.8 ± 6.1 mM

B5: K67M, E113V: LeuDH-AmDH variant, SEQ ID NO:5 (protein)
chain: B1 chain with E113V
Reductive amination specific activity ([1]; MIBK): 0.015 U mg^−1 protein | Km [2, 8]: 48 mM | Oxidative deamination specific activity [2]: 0.65 U mg^−1 protein

B6: Asn276Val: B. badius PheDH single variant (protein, listed as Bacillus badius)
chain: B2 chain with W77K, E276V
Amination Activity 40 mM MIBK, kcat [1]: n.m. | Deamination Activity 40 mM 1,3-DMBA, kcat [2]: 0.0016 ± 0.000 s⁻¹

B7: Lys77Met: B. badius PheDH single variant (protein, listed as Bacillus badius)
chain: B2 chain with W77M, E276N
Amination Activity 40 mM MIBK, kcat [1]: 0.0009 ± 0.000 s⁻¹ | Deamination Activity 40 mM 1,3-DMBA, kcat [2]: 0.0033 ± 0.000 s⁻¹
